Measurements as given in publication PMC7614001.

T1: ALK2 ECD (Homo sapiens), Q04771
T1 chain: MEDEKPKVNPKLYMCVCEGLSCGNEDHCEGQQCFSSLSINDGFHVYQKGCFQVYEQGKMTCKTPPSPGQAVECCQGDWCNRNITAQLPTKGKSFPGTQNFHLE

T2: ALK3 ECD (Homo sapiens), P36894
T2 chain: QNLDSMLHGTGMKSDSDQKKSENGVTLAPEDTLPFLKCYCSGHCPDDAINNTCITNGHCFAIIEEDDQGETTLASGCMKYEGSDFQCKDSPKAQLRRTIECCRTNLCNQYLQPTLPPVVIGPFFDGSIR

B1: BMP-7, P18075 (protein)
chain: STGSKQRSQNRSKTPKNQEALRMANVAENSSSDQRQACKKHELYVSFRDLGWQDWIIAPEGYAAYYCEGECAFPLNSYMNATNHAIVQTLVHFINPETVPKPCCAPTQLNAISVLYFDDSSNVILKKYRNMVVRACGCH
B2: BMP-9, Q9UK05 (protein)
chain: SAGAGSHCQKTSLRVNFEDIGWDSWIIAPKEYEAYECKGGCFFPLADDVTPTKHAIVQTLVHLKFPTKVGKACCVPTKLSPISVLYKDDMGVPTLKYHYEGMSVAECGCR

Columns and labels:
[1] = biological target: T1, ALK2 ECD (Homo sapiens), Q04771; test: BLI; settings: remark: other sources report otherwise
[2] = biological target: T2, ALK3 ECD (Homo sapiens), P36894; test: BLI; settings: remark: other sources report otherwise

| Binder | Kd [1] [nM] | Kd [2] [nM] |
| --- | --- | --- |
| B1 | 18.4 | 19 |
| B2 | 133 |  |
